According to publication PMC6482001 (eLife, 2019):
Like-named read-outs stand apart in the source and are kept apart here.

Tests used:
GltTk [1] = target: T1, GltTk (Thermococcus kodakarensis, UniProt Q5JID0); assay: isothermal titration calorimetry; conditions: 300 mM NaCl, 100 mM KCl, pH 8.0, 25 °C, 0.15% DM; Na+-coupled binding; cited from earlier work
T1 construct: gene TK0986; C-terminally His8-tagged (pBAD24-GltTk-His8), expressed in E. coli MC1061, purified in decylmaltoside-type detergent (DM) or reconstituted in proteoliposomes; homotrimer
Text: (§1) isothermal titration calorimetry on GltTk

[2] = target: glutamate transporter homolog GltTk from Thermococcus kodakarensis (Thermococcus kodakarensis) (UniProt Q5JID0); assay: crystal structure; GltTk with D-aspartate, 2.8 Å; hanging drop vapour diffusion at 5°C, 300 mM NaCl, 300 µM D-aspartate, protein 7 mg/ml in 10 mM Hepes KOH pH 8.0, 100 mM KCl, 0.15% DM; outward-oriented occluded state
GltTk [3] = target: T1, GltTk; assay: isothermal titration calorimetry; type: binding
Text: as §1

purified protein [4] = substrate: N[C@@H](CC(=O)O)C(=O)O; assay: purified protein; conditions: 100 mM NaCl outside, pH 7.5, 3 µM valinomycin, labelled compound
purified protein [5] = substrate: N[C@H](CC(=O)O)C(=O)O; assay: purified protein; conditions: 100 mM NaCl outside, pH 7.5, 3 µM valinomycin, labelled compound

## N[C@@H](CC(=O)O)C(=O)O [L-aspartate]
GltTk [1]
  Kd: 120 ± 40 nM

## glutamate transporter homolog GltTk from Thermococcus kodakarensis (from UniProt Q5JID0 1-430) (natural protein)
[2]
  stoichiometry N: 3

## N[C@H](CC(=O)O)C(=O)O [D-aspartate]
GltTk [3]
  Kd: 470 ± 170 nM

B1: GltTk (Thermococcus kodakarensis KOD1) (protein)
chain: MGKSLLRRYLDYPVLWKILWGLVLGAVFGLIAGHFGYAGAVKTYIKPFGDLFVRLLKMLVMPIVLASLVVGAASISPARLGRVGVKIVVYYLATSAMAVFFGLIVGRLFNVGANVNLGSGTGKAIEAQPPSLVQTLLNIVPTNPFASLAKGEVLPVIFFAIILGIAITYLMNRNEERVRKSAETLLRVFDGLAEAMYLIVGGVMQYAPIGVFALIAYVMAEQGVRVVGPLAKVVGAVYTGLFLQIVITYFILLKVFGIDPIKFIRKAKDAMITAFVTRSSSGTLPVTMRVAEEEMGVDKGIFSFTLPLGATINMDGTALYQGVTVLFVANAIGHPLTLGQQLVVVLTAVLASIGTAGVPGAGAIMLAMVLQSVGLDLTPGSPVALAYAMILGIDAILDMGRTMVNVTGDLAGTVIVAKTEKELDESKWIS
Purified protein [4]
  Km: 0.75 ± 0.17 µM
Purified protein [5]
  Km: 1.1 ± 0.11 µM
